For one substance, binding efficiency relative to WT Armi results are on record in article doi:10.1101/2024.06.02.596995.

In experiment [1] the target is Armitage ΔN34-Flag (D. melanogaster) (UniProt Q6J5K9). Put plainly: co-IP.
In experiment [2] the target is Armitage KEE-Flag (D. melanogaster) (UniProt Q6J5K9). Put plainly: co-IP.

Regarding “Daedalus (Daed), endogenous in OSCs (natural protein)”, the binding efficiency relative to WT Armi in experiment [1] was 20%; in experiment [2] it was 34%.
